Laboratory results: patent publication US20240002531A1 (ONO PHARMACEUTICAL, published 2024)
Like-named read-outs stand apart in the source and are kept apart here.

T1: HER2 peptide p603-622 (amino acids 603 to 622 of human HER2) (human)
T1 construct: Synthetic peptide; also called wild-type HER2 peptide
T1 peptide: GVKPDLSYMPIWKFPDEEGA

T2: G603A peptide (HER2 603-622 with G603A) (human)
T2 peptide: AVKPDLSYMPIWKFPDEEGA

T3: V604A peptide (HER2 603-622 with V604A) (human)
T3 peptide: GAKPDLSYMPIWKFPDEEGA

T4: K605A peptide (HER2 603-622 with K605A) (human)
T4 peptide: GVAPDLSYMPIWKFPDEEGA

T5: P606A peptide (HER2 603-622 with P606A) (human)
T5 peptide: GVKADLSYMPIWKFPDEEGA

T6: D607A peptide (HER2 603-622 with D607A) (human)
T6 peptide: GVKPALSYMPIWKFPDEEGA

T7: L608A peptide (HER2 603-622 with L608A) (human)
T7 peptide: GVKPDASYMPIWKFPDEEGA

T8: S609A peptide (HER2 603-622 with S609A) (human)
T8 peptide: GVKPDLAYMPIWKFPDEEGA

T9: Y610A peptide (HER2 603-622 with Y610A) (human)
T9 peptide: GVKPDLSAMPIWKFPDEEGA

T10: M611A peptide (HER2 603-622 with M611A) (human)
T10 peptide: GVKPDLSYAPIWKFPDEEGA

T11: P612A peptide (HER2 603-622 with P612A) (human)
T11 peptide: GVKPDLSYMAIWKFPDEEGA

T12: I613A peptide (HER2 603-622 with I613A) (human)
T12 construct: also called 1613A
T12 peptide: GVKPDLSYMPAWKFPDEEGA

T13: W614A peptide (HER2 603-622 with W614A) (human)
T13 peptide: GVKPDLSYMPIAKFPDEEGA

T14: F616A peptide (HER2 603-622 with F616A) (human)
T14 peptide: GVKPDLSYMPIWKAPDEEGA

T15: P617A peptide (HER2 603-622 with P617A) (human)
T15 peptide: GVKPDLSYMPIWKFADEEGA

T16: D618A peptide (HER2 603-622 with D618A) (human)
T16 peptide: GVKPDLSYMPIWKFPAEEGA

T17: E619A peptide (HER2 603-622 with E619A) (human)
T17 peptide: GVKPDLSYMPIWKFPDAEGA

T18: E620A peptide (HER2 603-622 with E620A) (human)
T18 peptide: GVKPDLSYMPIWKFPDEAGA

T19: G621A peptide (HER2 603-622 with G621A) (human)
T19 peptide: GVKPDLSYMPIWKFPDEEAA

T20: HER2_604-622C peptide (NH2-VKPDLSYMPIWKFPDEEGAC-COOH) (human)
T20 construct: KLH was added for immunisation, the peptide itself was coated in the screening ELISA
T20 peptide: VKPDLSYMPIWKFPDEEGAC

T21: K615A peptide (HER2 603-622 with K615A) (human)
T21 peptide: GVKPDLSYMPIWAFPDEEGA


Key:
Assay in all cases: peptide ELISA, OD 655 nm
[1] = target: T1, HER2 peptide p603-622 (amino acids 603 …)
[2] = target: T2, G603A peptide (HER2 603-622 with G603A)
[3] = target: T3, V604A peptide (HER2 603-622 with V604A)
[4] = target: T4, K605A peptide (HER2 603-622 with K605A)
[5] = target: T5, P606A peptide (HER2 603-622 with P606A)
[6] = target: T6, D607A peptide (HER2 603-622 with D607A)
[7] = target: T7, L608A peptide (HER2 603-622 with L608A)
[8] = target: T8, S609A peptide (HER2 603-622 with S609A)
[9] = target: T9, Y610A peptide (HER2 603-622 with Y610A)
[10] = target: T10, M611A peptide (HER2 603-622 with M611A)
[11] = target: T11, P612A peptide (HER2 603-622 with P612A)
[12] = target: T12, I613A peptide (HER2 603-622 with I613A)
[13] = target: T13, W614A peptide (HER2 603-622 with W614A)
[14] = target: T14, F616A peptide (HER2 603-622 with F616A)
[15] = target: T15, P617A peptide (HER2 603-622 with P617A)
[16] = target: T16, D618A peptide (HER2 603-622 with D618A)
[17] = target: T17, E619A peptide (HER2 603-622 with E619A)
[18] = target: T18, E620A peptide (HER2 603-622 with E620A)
[19] = target: T19, G621A peptide (HER2 603-622 with G621A)
[20] = target: T20, HER2_604-622C peptide …
[21] = target: T21, K615A peptide (HER2 603-622 with K615A)
[22] = target: T13, W614A peptide (HER2 603-622 with W614A)
[23] = target: T14, F616A peptide (HER2 603-622 with F616A)

Binder	binding result [1]	binding result [2]	binding result [3]	binding result [4]	binding result [5]	binding result [6]	binding result [7]	binding result [8]	binding result [9]	binding result [10]	binding result [11]	binding result [12]	binding result [13]	binding result [14]	binding result [15]	binding result [16]	binding result [17]	binding result [18]	binding result [19]	binding result [20]	also measured
H2Mab-296 antibody (antibody, mouse IgG1, kappa, V domains shown) VH: QVTLKESGPGILQPSQTLSLTCSFSGFSLSTSGMGVGWIRQPSGKGLEWLAHIWWDDDKRYNPALKSRLTISKDTSSNQVFLKIANVDTSDTATYYCSRIEGQRGFAYWGQGTLVTVSA VL: DIVMSQSPSSLAVSVGEMITMTCKSSQSLLYSRNQKNYLAWYQQKPGQSPKLLIYWASTRESGVPDRFTGSGSGTDFTLTISSVKAEDLAVYYCQQYYSQPYTFGGGTKLEIKR	binds	binds	binds	binds	binds	binds	binds	binds	binds	binds	binds	binds	binds	no binding (tested: 10 ug/ml)	binds	binds	binds	binds	binds	binds	
H2Mab-298 antibody (antibody, mouse IgG1, kappa, V domains shown) VH: DVKLVESGGGLVKPGGSLKLSCAASGFTFSRYSMSWVRQTPEKKLEWVAIISTGGSYMFYPDSAKGRFTISRDDAKNTLYLQMSSLKSEDTAMYYCTREAGDYWGQGTTLTVSS VL: not shown	binds	binds	binds	binds	binds	binds	binds	binds	binds	binds	binds	binds	binds	binds	binds	binds	binds	binds	binds	binds	binding result [21]: binds
H2Mab-295 antibody (antibody, mouse IgG1, kappa, V domains shown) VH: EVQLQQSGPELVKPGASRKISCKASGYSFTGYTMNWVKKSHGKNLEWIGLINPYNGGTRYNQKFKGKATLTVDKSSSTAYMELLSLTSEDSAVYYCVKEPSDYWGQGTTLTVSS VL: DVVMTQTPLSLPVSLGDQASISCRSSQSLVHSNGNTYLHWYLQKPGQSPKLLIYKVSKRFSGVPDRFSGCGSGTDFTLKISRLEAEDLGVYFCSQSSHVPPTFGGGTKLEIKR	binds	binds	binds	binds	binds	binds	binds	binds	binds	binds	binds	binds	binds	binds	binds	binds	binds	binds	binds	binds	binding result [21]: binds
H2Mab-286 antibody (antibody, mouse IgG1, kappa, V domains shown) VH: DVQLQESGPGLVKPSQSLSLTCTVTGYSITSDYGWNWIRQFPGNKLEWMGYIRYSGITSYNPSLKSRISITRDTSKNQFFLQLNSVTTEDTATYYCTREVLSWGQGTTLTVSS VL: DVVMTQTPLSLPVSLGDQASISCRSSQSLVHSNGNTYLHWFLQKPGQSPKLLIYKVSNRFSGVPARFSGSGSGTDFTLKISRVEAEDLGVYFCSQSTHVPPTFGGGTKLEIKR																					binding result [22]: no binding (tested: 10 ug/ml); binding result [23]: no binding (tested: 10 ug/ml)

More lines, main results first:

binding result [1]	binding result [2]	binding result [3]	binding result [4]	binding result [5]	binding result [6]	binding result [7]	binding result [8]	binding result [9]	binding result [10]	binding result [11]	binding result [12]	binding result [13]	binding result [14]	binding result [15]	binding result [16]	binding result [17]	binding result [18]	binding result [19]	binding result [20]	Binder	also measured
binds	binds	binds	binds	binds	binds	binds	binds	binds	binds	binds	binds	binds	binds	binds	binds	binds	binds	binds	binds	H2Mab-293 antibody (antibody, mouse IgG3, V domains shown) VH: EVQLVESGGGLVQPGGSLKLSCAASGFTFSNYGIFWVRQTPDKRLELVATVKSNGGSTYYPDSVKGRFTISRDNAKKTLYLQMSSLKSEDTAMYYCAREGGDYWGQGTSVTVSS VL: DIVMTQSHKFMSTSVGDRVSITCKASQDVGTAVAWYQQKPGQSPKLLIYWTSTRHIGVPDRFTGSGSGTDFTLTIRNVQSEDLANYFCQQYSKNPLTFGAGTKLELKR	binding result [21]: binds
binds	binds	binds	binds	binds	binds	binds	binds	binds	binds	binds	binds	no binding (tested: 10 ug/ml)	binds	binds	binds	binds	binds	binds	binds	H2Mab-294 antibody (antibody, mouse IgG1, kappa, V domains shown) VH: EVQLVESGGGLVQPGGSLKLSCAASGFTFSSYGMSWVRQTPDKRLELVATINSNGGGTYYPDSVKGRFTISRDNAKNTLYLQMSSLKSEDTAIYYCASPGSWFPYWGQGTLVTVSA VL: not shown	binding result [21]: binds
